Residue numbers refer to the chain shown, from its start.

The target in series [1] is T1, UL30 DNA polymerase catalytic subunit;UL42 processivity factor (Herpes simplex virus 1 (HHV-1);Herpes …, UniProt P04293;P10226 1-1235;1-488, |). Kind of series: cryo-EM; pre-translocation state, open fingers; 2.4 A; Cryo-EM complex buffer not given in material; protein purified in 20 mM HEPES pH 7.8, 400 mM NaCl, 1.5 mM MgCl2, 1 mM DTT, 5% glycerol. Particulars: protein: recombinant;recombinant; copies: 1;1; 5' overhang 26 nt on template (22 bp).
T1 sequence (P04293 whole entry, chain 1 of 2): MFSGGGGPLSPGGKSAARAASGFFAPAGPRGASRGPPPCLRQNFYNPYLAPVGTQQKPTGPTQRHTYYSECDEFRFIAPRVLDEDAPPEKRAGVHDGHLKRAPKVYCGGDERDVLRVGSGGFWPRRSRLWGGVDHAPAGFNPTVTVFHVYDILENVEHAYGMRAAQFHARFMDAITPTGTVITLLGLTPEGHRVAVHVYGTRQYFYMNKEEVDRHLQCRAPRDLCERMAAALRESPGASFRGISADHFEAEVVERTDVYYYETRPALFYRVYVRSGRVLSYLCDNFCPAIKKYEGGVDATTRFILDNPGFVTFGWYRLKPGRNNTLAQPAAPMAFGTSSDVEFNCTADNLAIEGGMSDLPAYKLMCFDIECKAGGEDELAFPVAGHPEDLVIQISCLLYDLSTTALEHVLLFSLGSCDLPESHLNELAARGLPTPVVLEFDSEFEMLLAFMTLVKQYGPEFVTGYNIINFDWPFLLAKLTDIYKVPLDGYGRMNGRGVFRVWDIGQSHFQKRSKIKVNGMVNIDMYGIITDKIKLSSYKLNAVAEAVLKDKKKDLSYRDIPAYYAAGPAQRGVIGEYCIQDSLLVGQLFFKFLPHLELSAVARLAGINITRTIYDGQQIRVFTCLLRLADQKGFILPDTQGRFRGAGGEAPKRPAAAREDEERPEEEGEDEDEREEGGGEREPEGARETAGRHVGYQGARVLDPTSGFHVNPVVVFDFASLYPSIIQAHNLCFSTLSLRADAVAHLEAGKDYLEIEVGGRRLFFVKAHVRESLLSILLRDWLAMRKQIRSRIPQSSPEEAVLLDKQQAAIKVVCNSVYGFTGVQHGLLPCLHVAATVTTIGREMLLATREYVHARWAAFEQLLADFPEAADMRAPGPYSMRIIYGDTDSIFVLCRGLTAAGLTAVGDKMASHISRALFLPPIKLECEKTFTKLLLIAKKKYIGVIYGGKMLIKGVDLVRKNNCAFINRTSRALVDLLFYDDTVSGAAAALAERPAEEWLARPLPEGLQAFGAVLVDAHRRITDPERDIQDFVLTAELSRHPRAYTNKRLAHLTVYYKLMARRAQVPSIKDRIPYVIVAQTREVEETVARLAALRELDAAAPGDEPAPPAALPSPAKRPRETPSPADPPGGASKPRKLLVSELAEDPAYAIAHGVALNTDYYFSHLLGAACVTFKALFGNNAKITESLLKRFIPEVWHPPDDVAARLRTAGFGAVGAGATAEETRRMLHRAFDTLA
T1 sequence (P10226 whole entry, chain 2 of 2): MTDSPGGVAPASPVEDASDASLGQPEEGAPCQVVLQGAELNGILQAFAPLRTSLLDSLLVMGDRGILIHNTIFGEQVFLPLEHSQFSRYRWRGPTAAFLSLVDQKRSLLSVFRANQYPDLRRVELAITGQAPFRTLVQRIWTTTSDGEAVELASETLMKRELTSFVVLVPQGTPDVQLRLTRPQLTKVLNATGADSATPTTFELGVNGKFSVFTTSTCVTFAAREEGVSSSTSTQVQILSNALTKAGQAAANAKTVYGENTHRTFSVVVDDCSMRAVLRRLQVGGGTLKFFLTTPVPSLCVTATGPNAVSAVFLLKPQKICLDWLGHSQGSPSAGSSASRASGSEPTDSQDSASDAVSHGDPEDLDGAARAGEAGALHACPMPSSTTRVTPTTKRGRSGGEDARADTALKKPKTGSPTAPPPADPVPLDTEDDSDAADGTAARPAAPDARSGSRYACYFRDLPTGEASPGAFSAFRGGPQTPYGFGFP

Series [2] deals with T1, UL30 DNA polymerase catalytic …. As to the kind of experiment: cryo-EM; DNA editing (exonuclease) state; also 8OJB, 8OJC (active site classes), 8OJD (beta-hairpin loop); Cryo-EM complex buffer not given in material; protein purified in 20 mM HEPES pH 7.8, 400 mM NaCl, 1.5 mM MgCl2, 1 mM DTT, 5% glycerol. Particulars: protein: recombinant;recombinant; copies: 1;1; 5' overhang 21 nt on template; 2 mismatches (A/G) at primer 3' end.

Series [3] has the same target. As to the kind of experiment: cryo-EM; halted elongation state, dATP in dNTP pocket; 1 mM dATP/dGTP/dTTP/ddCTP mix; Cryo-EM complex buffer not given in material; protein purified in 20 mM HEPES pH 7.8, 400 mM NaCl, 1.5 mM MgCl2, 1 mM DTT, 5% glycerol. The note with it: protein: recombinant;recombinant; copies: 1;1; 5' overhang 14 nt on template after extension (22 nt before).

The target is the same in series [4]. Kind of series: cryo-EM; DNA editing (exonuclease) state; also 9ENQ (active site); Cryo-EM complex buffer not given in material; protein purified in 20 mM HEPES pH 7.8, 400 mM NaCl, 1.5 mM MgCl2, 1 mM DTT, 5% glycerol. The note with it: protein: recombinant;recombinant; copies: 1;1; 5' overhang 21 nt on template; 1 mismatch (A/G) at primer 3' end.

B1: pre-translocation primer-template (dsDNA)
DNA 1: CGAAAGTACGTTATTGCGACTGGCCGTCGCTCTACAACGTCGTGACTG
DNA 2: CAGTCACGACGTTGTAGAGCGA
For B1, the binding result in series [1] is given as “binds”.

B2: 2-bp mismatch exonuclease primer-template (dsDNA)
DNA 1: ATTTGCTGACCTTTGTTCTGGGGTGAGTTGGTTGGACGGCTGCGAGGCGATCAAGGTGTCGTAGTGGC
DNA 2: GCCACTACGACACCTTGATCGCCTCGCAGCCGTCCAACCAACTCAAA
modifications: * before each of the last two A of primer (phosphorothioate?; not defined in material)
Turning to B2, the binding result in series [2] is given as “binds”.

B3: halted elongation primer-template (ddC-terminated) (dsDNA)
DNA 1: ATTTGCTGACCTTTGTTCTAATTGAGTTGGTTGGACGGCTGCGAGGCGATCAAGGTGTCGTAGTGGC
DNA 2: GCCACTACGACACCTTGATCGCCTCGCAGCCGTCCAACCAACTCAATTAGAAC
modifications: 3'-terminal ddC on primer, added in situ: printed primer S5 extended with dATP, dGTP, dTTP, ddCTP to first template G
With B3, the binding result in series [3] was “binds”.

B4: 1-bp mismatch exonuclease primer-template (dsDNA)
DNA 1: B3 DNA 1 with A20G, A21G, T22G
DNA 2: GCCACTACGACACCTTGATCGCCTCGCAGCCGTCCAACCAACTCAA
modifications: * before each of the last two A of primer (phosphorothioate?; not defined in material)
For B4, in series [4], the binding result is recorded as “binds”.

Values taken from PMC11229320, “Dynamics of the Herpes simplex virus DNA polymerase holoenzyme during DNA synthesis and proof-reading revealed by Cryo-EM”.
